According to the supplement of paper PMC11908140:

B1: library; numbered along this chain (parent)
chain: MRKPRAAVGSGHRKQAASQEGRQKHAKNNSQAKPSACDGLARQPEEVVLQASVSSYHLFRDVAEVTAFRGSLLSWYDQEKRDLPWRRRAEDEMDLDRRAYAVWVSEVMLQQTQVATVINYYTGWMQKWPTLQDLASASLEEVNQLWAGLGYYSRGRRLQEGARKVVEELGGHMPRTAETLQQLLPGVGRYTAGAIASIAFGQATGVVDGNVARVLCRVRAIGADPSSTLVSQQLWGLAQQLVDPARPGDFNQAAMELGATVCTPQRPLCSQCPVESLCRARQRVEQEQLLASGSLSGSPDVEECAPNTGQCHLCLPPSEPWDQTLGVVNFPRKASRKPPREESSATCVLEQPGALGAQILLVQRPNSGLLAGLWEFPSVTWEPSEQLQRKALLQELQRWAGPLPATHLRHLGEVVHTFSHIKLTYQVYGLALEGQTPVTTVPPGARWLTQEEFHTAAVSTAMKKVFRVYQGQQPGTCMGSKRSQVSSPCSRKKPRMGQQVLDNFFRSHISTDAHSLNSAAQ

Variants of: B1
Test: 8OG:A repair function score (normalized; synonymous = 0, nonsense = -1) (normalized log-likelihood score); higher = more repair activity (WT-like)
Settings: with 8OG:A DNA repair reporter (GFP) in HEK-293 MUTYH KO cells
Outline: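 After 72 h, viable mCherry+ cells were split into GFP+ (repair) and GFP− bins in three replicates per tile. These cells were MUTYH knockout HEK-293 cells holding lentiviral MUTYH cDNA NNN codon-scan libraries, kept in 10 pg/ml doxycycline and co-transfected with mCherry plus an 8OG:A GFP repair reporter. Sequencing of tile amplicons gave per-tile Rosace fitness scores, normalized into a repair function score anchored on synonymous and nonsense distributions. Synonymous medians were fixed at 0, nonsense at -1, and variants under 300 counts per million at the start were removed.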
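Note: cells sorted at 72 h after reporter transfection.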

8OG:A repair function score of substitutions, site by site:
A194: H -1.31; R -1.1; L -0.733; E -0.986; M -0.32; I -0.291; Y -1.23; N -0.737; T -0.422; V -0.443; G -0.624; S -0.169; D -1.03; W -1.05; C -0.313; F -1.16; P -1.06; Q -0.577; K -1.06
A192: S -0.166; Q -1.03; I -1.07; G -0.105; W -1.16; N -0.876; P -1.17; M -0.964; L -1.11; C -0.572; K -1.07; V -0.943; Y -1.07; R -0.901; F -1.12; H -0.926; D -0.927; T -1.07; E -0.908
V187: L -0.609
G193: S 0.0283; F -0.465; M -0.156; V -0.346; T -0.169; Q -0.238; D -0.37; N 0.0644; E -0.722; L -0.637; A -0.0458; P -0.524; K -0.203; C 0.0546; Y -0.241; W -0.832; R -0.0604; H -0.0997; I -0.531
G186: F -1.04; S -0.34; A -0.672; D -0.855; I -1.23; V -0.852; T -0.373; P -0.924; Y -0.992; E -0.989; M -0.885; N -0.814; Q -0.401; R -1.16; W -1.08; K -0.9; C -0.439; L -1.02; H -0.754
G201: N 0.0301; V -0.331; F -0.266; H 0.0082; T -0.23; R -0.0601; L -0.298; D -0.0211; P -1.06; W -0.353; K 0.012; Y -0.227; A -0.14; I -0.543; M -0.244; S -0.0385; E -0.32; Q 0.039; C -0.103
G188: Q -0.909; F -1.06; R -0.844; S -0.643; K -1.11; H -0.662; D -1.09; W -1.02; P -0.845; A -0.365; Y -0.89; E -0.866; M -0.929; V -1.04; I -1.11; T -1.03; C -0.839; L -0.95; N -0.923
I195: R -1.02; T -0.534; Y -0.741; M -0.23; F -1.08; L -0.287; Q -1.01; W -0.908; H -1.14; E -1.06; D -1.1; G -0.964; C -0.59; V -0.0879; K -1.05; P -1.04; N -1.12; S -0.944; A -0.996
T191: W -1.2; S -0.16; I -0.0338; C -0.351; A -0.325; P -0.924; L -0.585; N -0.68; V -0.236; D -1.01; R -1.16; G -0.428; E -0.898; F -1.01; K -1.26; Q -0.768; M -0.127; Y -1.07; H -0.486
A199: S -0.171; K -1.14; Q -1.11; E -1.06; R -1.16; F -1.13; Y -1.05; M -0.87; P -1.07; G -0.183; T -0.214; I -0.536; D -1.07; W -0.8
